For data set [1], the target named is CREB (TNT-CREB) (UniProt P16220 1-327). In words: EMSA; specific; 40 mM Hepes pH 7.9, 75 mM KCl, 0.2 mM EDTA, 0.5 mM DTT, 150 ng/ul poly(dI-dC), 5% Ficoll, room temperature, 30 min; 7 ug TNT protein; competitor 100-fold or 50-fold (Methods). As to conditions: protein: ivt; chain copies: 2; label: 32P; blunt. For orientation: In EMSA bound probe runs differently from free probe, usually more slowly.

Data set [2] concerns the target Smad3 (TNT-Smad3) (UniProt P84022 1-425). The description is as above. The note with it: protein: ivt; label: 32P; blunt.

Chain of Smad3 (TNT-Smad3) (P84022 whole entry): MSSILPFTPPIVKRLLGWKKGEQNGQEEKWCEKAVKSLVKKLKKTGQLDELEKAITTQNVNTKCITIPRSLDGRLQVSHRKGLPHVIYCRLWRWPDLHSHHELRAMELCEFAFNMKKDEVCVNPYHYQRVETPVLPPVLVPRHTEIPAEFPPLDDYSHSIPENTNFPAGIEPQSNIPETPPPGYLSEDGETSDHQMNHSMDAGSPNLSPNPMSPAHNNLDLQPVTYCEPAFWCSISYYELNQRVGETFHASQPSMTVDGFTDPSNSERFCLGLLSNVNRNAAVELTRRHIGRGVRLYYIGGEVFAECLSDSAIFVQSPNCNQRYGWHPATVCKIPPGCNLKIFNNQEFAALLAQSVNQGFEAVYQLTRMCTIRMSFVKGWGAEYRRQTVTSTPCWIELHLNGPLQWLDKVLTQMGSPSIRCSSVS
Chain of CREB (TNT-CREB) (P16220 whole entry): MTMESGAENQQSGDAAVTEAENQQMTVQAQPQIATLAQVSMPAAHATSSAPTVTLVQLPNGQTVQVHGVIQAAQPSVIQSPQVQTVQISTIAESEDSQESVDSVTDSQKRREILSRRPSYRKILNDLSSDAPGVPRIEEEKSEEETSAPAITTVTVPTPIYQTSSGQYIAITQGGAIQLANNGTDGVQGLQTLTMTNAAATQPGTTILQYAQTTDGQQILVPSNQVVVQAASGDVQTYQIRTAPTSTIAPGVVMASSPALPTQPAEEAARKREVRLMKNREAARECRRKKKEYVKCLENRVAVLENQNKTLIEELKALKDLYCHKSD

B1: Sox9 promoter CRE (dsDNA)
DNA 1: CCTCGAGTCTCGTCACCCA
DNA 2: TGGGTGACGAGACTCGAGG
On to B1, for which the binding result in data set [1] is reported as “binds”.

B2: Sox9 promoter Smad site (dsDNA)
DNA 1: CTCGGAACTGTCTGGAAACTTCAG
DNA 2: CTGAAGTTTCCAGACAGTTCCGAG
For B2, the binding result in data set [2] is given as “binds”.
